Where a SMILES comes first, the peptide text is derived from it. Bridges are numbered along the chain shown (N, C = ends). [ ]: non-standard residue; d: D form. pGlu = O=C1CC[C@@H](C(=O)O)N1; dNle = CCCC[C@@H](N)C(=O)O
How the values were obtained:
[1] = in vitro; conditions: rat, plasma
Procedure: The calcium flux protocol described above was followed, with the following changes. The peptides were also incubated with 5% rat plasma (Bioreclamation # [sequence]-M, Na Heparin-treated). Readings were taken at time points t0 and t24 hrs, after incubation in a 37° C. tissue culture incubator. Peptide plasma half-life in minutes was estimated by calculating the following: • 1) LN((EC50 at t0)/(EC50 at t24 hrs)), • 2) Calculate slope of value above and • 3) t112=0.693/(slope^2).

[2] = target: T1, human APJ receptor (hAPJ) (human, UniProt P35414 1-380); test: cell-based or functional assay
T1 sequence (looked up): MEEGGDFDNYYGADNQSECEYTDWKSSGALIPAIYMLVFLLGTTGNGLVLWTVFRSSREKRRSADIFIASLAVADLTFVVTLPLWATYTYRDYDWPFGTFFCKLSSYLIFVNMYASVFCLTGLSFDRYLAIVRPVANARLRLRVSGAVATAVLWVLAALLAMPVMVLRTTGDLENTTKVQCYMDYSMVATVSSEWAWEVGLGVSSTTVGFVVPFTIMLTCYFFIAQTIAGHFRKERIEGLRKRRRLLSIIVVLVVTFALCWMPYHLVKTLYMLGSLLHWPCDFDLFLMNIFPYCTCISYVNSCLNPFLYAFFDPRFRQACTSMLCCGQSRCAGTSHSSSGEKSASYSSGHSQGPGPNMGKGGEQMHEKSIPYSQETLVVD

Molecule | half-life [1] | hAPJ Ca^2+ Flux EC50 [2]
CCCC[C@@H](NC(=O)[C@@H]1CCCN1C(=O)CNC(=O)[C@H](CCCCN)NC(=O)[C@H](Cc1c[nH]cn1)NC(=O)[C@@H]1CSSC[C@H](NC(=O)[C@H](CCCNC(=N)N)NC(=O)[C@@H]2CCC(=O)N2)C(=O)N[C@@H](CCCNC(=N)N)C(=O)N[C@@H](CC(C)C)C(=O)N1)C(=O)N[C@H](C)C(=O)N[C@H](Cc1ccccc1)C(=O)O [Example 2, pE-R-C*-R-L-C*-H-K-G-P-(D-Nle)-a-f-OH] (HELM PEPTIDE1{[Glp].R.C.R.L.C.H.K.G.P.[CCCC[C@@H](N[*:1])C(=O)[*:2]].[dA].[dF]}$PEPTIDE1,PEPTIDE1,3:R3-6:R3$$$V2.0) | 225 min | –
CCCC[C@@H](NC(=O)[C@@H]1CCCN1C(=O)CNC(=O)[C@H](CCCCN)NC(=O)[C@H](Cc1c[nH]cn1)NC(=O)[C@@H]1CSSC[C@H](NC(=O)[C@H](CCCNC(=N)N)NC(=O)[C@@H]2CCC(=O)N2)C(=O)N[C@@H](CCCNC(=N)N)C(=O)N[C@@H](CC(C)C)C(=O)N1)C(=O)NCCc1ccccc1 [Example 3, pE-R-C*-R-L-C*-H-K-G-P-(D-Nle)-NH(Phenethyl)] (HELM PEPTIDE1{[Glp].R.C.R.L.C.H.K.G.P.[CCCC[C@@H](N[*:1])C(=O)[*:2]].[c1ccc(CCN[*:1])cc1]}$PEPTIDE1,PEPTIDE1,3:R3-6:R3$$$V2.0) | 1200 min | –
CCCC[C@H](NC(=O)[C@@H]1CCCN1C(=O)[C@@H]1CSSC[C@H](NC(=O)[C@H](CC(C)C)NC(=O)[C@H](CCCNC(=N)N)NC(=O)[C@@H]2CCCN2C(=O)[C@H](CCCNC(=N)N)NC(=O)[C@@H]2CCC(=O)N2)C(=O)N[C@@H](Cc2c[nH]cn2)C(=O)N[C@@H](CCCCN)C(=O)N1)C(=O)N1CCC[C@H]1C(=O)N[C@@H](Cc1ccccc1)C(=O)O [Example 5, pE-R-P-R-L-C*-H-K-C*-P-Nle-P-F-OH] (HELM PEPTIDE1{[Glp].R.P.R.L.C.H.K.C.P.[Nle].P.F}$PEPTIDE1,PEPTIDE1,6:R3-9:R3$$$V2.0) | 16 min | –
CC(C)C[C@H](NC(=O)[C@H](CCCNC(=N)N)NC(=O)[C@@H]1CCCN1C(=O)[C@H](CCCNC(=N)N)NC(=O)[C@@H]1CCC(=O)N1)C(=O)N[C@@H]1CSSC[C@@H](C(=O)N2CCC[C@H]2C(=O)N[C@H](Cc2ccccc2)C(=O)N[C@H](C)C(=O)N[C@H](Cc2ccccc2)C(=O)O)NC(=O)[C@H](CCCCN)NC(=O)[C@H](Cc2c[nH]cn2)NC1=O [Example 6, pE-R-P-R-L-c*-H-K-C*-P-f-a-f-OH] (HELM PEPTIDE1{[Glp].R.P.R.L.[dC].H.K.C.P.[dF].[dA].[dF]}$PEPTIDE1,PEPTIDE1,6:R3-9:R3$$$V2.0) | 50 min | –
ERPRLCHKCPLPF (HELM PEPTIDE1{[Glp].R.P.R.L.C.H.K.C.P.[Nle].P.F}$PEPTIDE1,PEPTIDE1,6:R3-9:R3$$$V2.0; SMILES CCCC[C@H](NC(=O)[C@@H]1CCCN1C(=O)[C@@H]1CSSC[C@H](NC(=O)[C@H](CC(C)C)NC(=O)[C@H](CCCNC(=N)N)NC(=O)[C@@H]2CCCN2C(=O)[C@H](CCCNC(=N)N)NC(=O)[C@@H]2CCC(=O)N2)C(=O)N[C@@H](Cc2c[nH]cn2)C(=O)N[C@@H](CCCCN)C(=O)N1)C(=O)N1CCC[C@H]1C(=O)N[C@@H](Cc1ccccc1)C(=O)O) [Example 5: pE-R-P-R-L-C*-H-K-C*-P-Nle-P-F-OH (Disulfide C6-C9)] | – | 6.9 nM
ERCRLCHKGPLAF (HELM PEPTIDE1{[Glp].R.C.R.L.C.H.K.G.P.[CCCC[C@@H](N[*:1])C(=O)[*:2]].[dA].[dF]}$PEPTIDE1,PEPTIDE1,3:R3-6:R3$$$V2.0; SMILES CCCC[C@@H](NC(=O)[C@@H]1CCCN1C(=O)CNC(=O)[C@H](CCCCN)NC(=O)[C@H](Cc1c[nH]cn1)NC(=O)[C@@H]1CSSC[C@H](NC(=O)[C@H](CCCNC(=N)N)NC(=O)[C@@H]2CCC(=O)N2)C(=O)N[C@@H](CCCNC(=N)N)C(=O)N[C@@H](CC(C)C)C(=O)N1)C(=O)N[C@H](C)C(=O)N[C@H](Cc1ccccc1)C(=O)O) [Example 2: pE-R-C*-R-L-C*-H-K-G-P-(D-Nle)-a-f-OH (Disulfide C3-C6)] | – | 77 nM
ERCRLCHKGPFAF (HELM PEPTIDE1{[Glp].R.[dC].R.L.C.H.K.G.P.[dF].[dA].[dF]}$PEPTIDE1,PEPTIDE1,3:R3-6:R3$$$V2.0; SMILES CC(C)C[C@@H]1NC(=O)[C@H](CCCNC(=N)N)NC(=O)[C@H](NC(=O)[C@H](CCCNC(=N)N)NC(=O)[C@@H]2CCC(=O)N2)CSSC[C@@H](C(=O)N[C@@H](Cc2c[nH]cn2)C(=O)N[C@@H](CCCCN)C(=O)NCC(=O)N2CCC[C@H]2C(=O)N[C@H](Cc2ccccc2)C(=O)N[C@H](C)C(=O)N[C@H](Cc2ccccc2)C(=O)O)NC1=O) [Example 4: pE-R-c*-R-L-C*-H-K-G-P-f-a-f-OH (Disulfide C3-C6)] | – | 496 nM
ERCRLCHKGPLPF (HELM PEPTIDE1{[Glp].R.C.R.L.C.H.K.G.P.[Nle].P.F}$PEPTIDE1,PEPTIDE1,3:R3-6:R3$$$V2.0; SMILES CCCC[C@H](NC(=O)[C@@H]1CCCN1C(=O)CNC(=O)[C@H](CCCCN)NC(=O)[C@H](Cc1c[nH]cn1)NC(=O)[C@@H]1CSSC[C@H](NC(=O)[C@H](CCCNC(=N)N)NC(=O)[C@@H]2CCC(=O)N2)C(=O)N[C@@H](CCCNC(=N)N)C(=O)N[C@@H](CC(C)C)C(=O)N1)C(=O)N1CCC[C@H]1C(=O)N[C@@H](Cc1ccccc1)C(=O)O) [Example 1: pE-R-C*-R-L-C*-H-K-G-P-Nle-P-F-OH (Disulfide C3-C6)] | – | 3.5 nM
[pGlu]RCRLCHKGP[dNle]-{NH‑phenethyl} (disulfide 3-6) [Example 3: pE-R-C*-R-L-C*-H-K-G-P-(D-Nle)-NH(Phenethyl) (Disulfide C3-C6)] | – | 871 nM
ERPRLCHKCPFAF (HELM PEPTIDE1{[Glp].R.P.R.L.[dC].H.K.C.P.[dF].[dA].[dF]}$PEPTIDE1,PEPTIDE1,6:R3-9:R3$$$V2.0; SMILES CC(C)C[C@H](NC(=O)[C@H](CCCNC(=N)N)NC(=O)[C@@H]1CCCN1C(=O)[C@H](CCCNC(=N)N)NC(=O)[C@@H]1CCC(=O)N1)C(=O)N[C@@H]1CSSC[C@@H](C(=O)N2CCC[C@H]2C(=O)N[C@H](Cc2ccccc2)C(=O)N[C@H](C)C(=O)N[C@H](Cc2ccccc2)C(=O)O)NC(=O)[C@H](CCCCN)NC(=O)[C@H](Cc2c[nH]cn2)NC1=O) [Example 6: pE-R-P-R-L-c*-H-K-C*-P-f-a-f-OH] | – | 12.3 nM

Further lines, results first:

half-life [1] | hAPJ Ca^2+ Flux EC50 [2] | Molecule
4 min | – | CCCC[C@H](NC(=O)[C@@H]1CCCN1C(=O)CNC(=O)[C@H](CCCCN)NC(=O)[C@H](Cc1c[nH]cn1)NC(=O)[C@@H]1CSSC[C@H](NC(=O)[C@H](CCCNC(=N)N)NC(=O)[C@@H]2CCC(=O)N2)C(=O)N[C@@H](CCCNC(=N)N)C(=O)N[C@@H](CC(C)C)C(=O)N1)C(=O)N1CCC[C@H]1C(=O)N[C@@H](Cc1ccccc1)C(=O)O [Example 1, pE-R-C*-R-L-C*-H-K-G-P-Nle-P-F-OH] (HELM PEPTIDE1{[Glp].R.C.R.L.C.H.K.G.P.[Nle].P.F}$PEPTIDE1,PEPTIDE1,3:R3-6:R3$$$V2.0)
86 min | – | CC(C)C[C@@H]1NC(=O)[C@H](CCCNC(=N)N)NC(=O)[C@H](NC(=O)[C@H](CCCNC(=N)N)NC(=O)[C@@H]2CCC(=O)N2)CSSC[C@@H](C(=O)N[C@@H](Cc2c[nH]cn2)C(=O)N[C@@H](CCCCN)C(=O)NCC(=O)N2CCC[C@H]2C(=O)N[C@H](Cc2ccccc2)C(=O)N[C@H](C)C(=O)N[C@H](Cc2ccccc2)C(=O)O)NC1=O [Example 4, pE-R-c*-R-L-C*-H-K-G-P-f-a-f-OH] (HELM PEPTIDE1{[Glp].R.[dC].R.L.C.H.K.G.P.[dF].[dA].[dF]}$PEPTIDE1,PEPTIDE1,3:R3-6:R3$$$V2.0)
52 min | – | CCCC[C@@H](NC(=O)[C@@H]1CCCN1C(=O)[C@@H]1CSSCC[C@@H](NC(=O)[C@H](CC(C)C)NC(=O)[C@H](CCCNC(=N)N)NC(=O)[C@@H]2CCCN2C(=O)[C@H](CCCNC(=N)N)NC(=O)[C@@H]2CCC(=O)N2)C(=O)N[C@@H](Cc2c[nH]cn2)C(=O)N[C@@H](CCCCN)C(=O)N1)C(=O)N1CCC[C@@H]1C(=O)N[C@H](Cc1ccccc1)C(=O)O [Example 7, pE-R-P-R-L-(D-hC)*-H-K-C*-P-(D-Nle)-p-f-OH] (HELM PEPTIDE1{[Glp].R.P.R.L.[O=C([C@@H](CCS[*:3])N[*:1])[*:2]].H.K.C.P.[CCCC[C@@H](N[*:1])C(=O)[*:2]].[dP].[dF]}$PEPTIDE1,PEPTIDE1,6:R3-9:R3$$$V2.0)
– | 9.7 nM | ERPRLCHKCPLPF (HELM PEPTIDE1{[Glp].R.P.R.L.[O=C([C@@H](CCS[*:3])N[*:1])[*:2]].H.K.C.P.[CCCC[C@@H](N[*:1])C(=O)[*:2]].[dP].[dF]}$PEPTIDE1,PEPTIDE1,6:R3-9:R3$$$V2.0; SMILES CCCC[C@@H](NC(=O)[C@@H]1CCCN1C(=O)[C@@H]1CSSCC[C@@H](NC(=O)[C@H](CC(C)C)NC(=O)[C@H](CCCNC(=N)N)NC(=O)[C@@H]2CCCN2C(=O)[C@H](CCCNC(=N)N)NC(=O)[C@@H]2CCC(=O)N2)C(=O)N[C@@H](Cc2c[nH]cn2)C(=O)N[C@@H](CCCCN)C(=O)N1)C(=O)N1CCC[C@@H]1C(=O)N[C@H](Cc1ccccc1)C(=O)O) [Example 7: pE-R-P-R-L-(D-hC)*-H-K-C*-P-(D-Nle)-p-f-OH]
– | 43.7 nM | ERPRLCHKGPLPC (HELM PEPTIDE1{[Glp].R.P.R.L.C.H.K.G.P.[Nle].P.C}$PEPTIDE1,PEPTIDE1,6:R3-13:R3$$$V2.0; SMILES CCCC[C@@H]1NC(=O)[C@@H]2CCCN2C(=O)CNC(=O)[C@H](CCCCN)NC(=O)[C@H](Cc2c[nH]cn2)NC(=O)[C@@H](NC(=O)[C@H](CC(C)C)NC(=O)[C@H](CCCNC(=N)N)NC(=O)[C@@H]2CCCN2C(=O)[C@H](CCCNC(=N)N)NC(=O)[C@@H]2CCC(=O)N2)CSSC[C@@H](C(=O)O)NC(=O)[C@@H]2CCCN2C1=O) [Example 8: pE-R-P-R-L-C*-H-K-G-P-Nle-P-C*-OH]

Source: US9908919B2, “Cyclic apelin derivatives for the treatment of heart failure” (priority 2013, dated 2018)
